Laboratory results from patent EP4748861A1 (Duality Biologics (Suzhou) Co., Ltd., dated 2025).

How the values were obtained:
[1] = molecular target: T1, human HER3 on cells (human, UniProt P21860 20-1342); assay: flow cytometry on HER3-CT26 cells, PE anti-human IgG Fc
T1 construct: whole, on cells; Used as target for cells that carry HER3 alone (HER3-CT26) and for the anti-HER3 mAb on tumor lines that carry both receptors; the cell line is named under assay; also called HER3-CT26; HER3/CT26 (EGFR-, HER3+++)

[2] = molecular target: T2, human EGFR on cells (human, UniProt P00533 25-1210); assay: flow cytometry on EGFR-CT26 cells, PE anti-human IgG Fc
T2 construct: whole, on cells; the cell line is named under assay; also called EGFR-CT26; EGFR/CT26 (EGFR+++, HER3-)

[3] = molecular target: T3, human EGFR (His-Avi Tag, Kactus Biosystem, EGF-HM401) (human, UniProt P00533 25-645); assay: SPR, Biacore T200; ratio of affinities
T3 construct: Bought soluble protein used as SPR analyte; also called hEGFR; not shown: His-Avi tag

[4] = molecular target: T4, monkey EGFR (rhesus EGFR, C-His Tag, Kactus Biosystem, EGF-CM101) (rhesus monkey, UniProt P55245 25-645, limits assumed); assay: SPR, Biacore T200; antibody captured on ProA chip, antigen as analyte; 1:1 Langmuir fit
T4 construct: Bought soluble protein used as SPR analyte; not shown: C-terminal His tag

[5] = molecular target: T3, human EGFR (His-Avi Tag, Kactus …); assay: as above
[6] = molecular target: T5, human HER3 (His-Avi Tag, Kactus Biosystem, HER-HM403) (human, UniProt P21860 20-643); assay: as above
T5 construct: Bought soluble protein used as SPR analyte; also called hHER3; not shown: His-Avi tag

[7] = molecular target: T6, monkey HER3 (rhesus HER3, C-His Tag, Kactus Biosystem, HER-CM403) (rhesus monkey, UniProt H9ERZ8 20-643); assay: as above
T6 construct: Bought soluble protein used as SPR analyte; not shown: C-terminal His tag
T6 sequence (H9ERZ8 entry or part of it): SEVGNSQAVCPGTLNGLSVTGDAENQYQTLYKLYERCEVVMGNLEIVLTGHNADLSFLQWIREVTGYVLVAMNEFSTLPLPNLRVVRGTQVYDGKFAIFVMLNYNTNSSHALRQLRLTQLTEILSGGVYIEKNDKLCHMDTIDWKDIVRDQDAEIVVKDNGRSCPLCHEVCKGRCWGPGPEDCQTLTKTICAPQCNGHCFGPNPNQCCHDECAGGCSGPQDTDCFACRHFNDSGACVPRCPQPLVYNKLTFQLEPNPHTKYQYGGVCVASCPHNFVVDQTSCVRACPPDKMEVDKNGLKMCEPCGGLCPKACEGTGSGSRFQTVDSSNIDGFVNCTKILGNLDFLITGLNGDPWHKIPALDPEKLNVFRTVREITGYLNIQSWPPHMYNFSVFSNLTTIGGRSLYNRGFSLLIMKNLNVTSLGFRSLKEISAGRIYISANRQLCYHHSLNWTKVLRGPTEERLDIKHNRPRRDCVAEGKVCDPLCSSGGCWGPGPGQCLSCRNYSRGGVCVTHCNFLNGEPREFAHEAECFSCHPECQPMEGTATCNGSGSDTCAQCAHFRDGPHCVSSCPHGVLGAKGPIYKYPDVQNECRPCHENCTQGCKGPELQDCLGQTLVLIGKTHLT

EC50 [1] [nM]	EC50 [2] [nM]	fold weaker affinity than its affinity for HER3 [3] [fold]	fold weaker affinity than the parent EGFR antibody [3] [fold]	Kd [4] [nM]	koff [4] [s⁻¹]	kon [4] [M⁻¹ s⁻¹]	Kd [5] [nM]	koff [5] [s⁻¹]	kon [5] [M⁻¹ s⁻¹]	Kd [6] [nM]	koff [6] [s⁻¹]	kon [6] [M⁻¹ s⁻¹]	Kd [7] [nM]	koff [7] [s⁻¹]	kon [7] [M⁻¹ s⁻¹]	Binder
1.96	1.9	~16	~3	11.3	0.000534	47200	9.29	0.00055	59200	0.56	0.00018	322000	0.563	0.000157	278000	DBXT001-01 (bispecific antibody, human IgG1, kappa, H1/L1 are the EGFR arm, H2/L2 the HER3 arm; one arm for each antigen; also called BsAb DBXT001-01; EGFR-HER3 BsAb) heavy 1: not shown light 1: not shown heavy 2: not shown light 2: DIQMTQSPSSLSASVGDRVTITCRASQDISNYLNWYQQKPGKAPKLLIYYTSILHSGVPSRFSGSGSGTDYTFTISSLQPEDIATYFCQQGDTLPPTFGGGTKLEIKSSASTKGPSVFPLAPSSKSTSGGTAALGCLVKDYFPEPVTVSWNSGALTSGVHTFPAVLQSSGLYSLSSVVTVPSSSLGTQTYICNVNHKPSNTKVDKKVEPKSC
0.28										0.493	0.000379	768000				anti-HER3 mAb (antibody, human IgG1, kappa, V domains shown, expressed in CHO cells; also called HER3 parent mAb; parent HER3 antibody) VH: QVQLQESGPGLVKPSETLSLTCTVSGYSITSAYYWNWIRQPFGKGLEWMGYISYDGRNNFNPSLKNRVTISRDTSKNQFSLKLSSVTAADTAVYYCARDGDYDYFDYWGQGTTVTVSS VL: DIQMTQSPSSLSASVGDRVTITCRASQDISNYLNWYQQKPGKAPKLLIYYTSILHSGVPSRFSGSGSGTDYTFTISSLQPEDIATYFCQQGDTLPPTFGGGTKLEIKR
